Experimental findings from publication PMC9909341, “TLQP-21 is a low potency partial C3aR activator on human primary macrophages” (Frontiers in Immunology, 2023) are described below.

The target in experiment [1] is T1, Murine complement C3a receptor, endogenous on mouse bone marrow-derived macrophages (mouse (endogenous in BMDMs)) (UniProt O09047).
T1 sequence: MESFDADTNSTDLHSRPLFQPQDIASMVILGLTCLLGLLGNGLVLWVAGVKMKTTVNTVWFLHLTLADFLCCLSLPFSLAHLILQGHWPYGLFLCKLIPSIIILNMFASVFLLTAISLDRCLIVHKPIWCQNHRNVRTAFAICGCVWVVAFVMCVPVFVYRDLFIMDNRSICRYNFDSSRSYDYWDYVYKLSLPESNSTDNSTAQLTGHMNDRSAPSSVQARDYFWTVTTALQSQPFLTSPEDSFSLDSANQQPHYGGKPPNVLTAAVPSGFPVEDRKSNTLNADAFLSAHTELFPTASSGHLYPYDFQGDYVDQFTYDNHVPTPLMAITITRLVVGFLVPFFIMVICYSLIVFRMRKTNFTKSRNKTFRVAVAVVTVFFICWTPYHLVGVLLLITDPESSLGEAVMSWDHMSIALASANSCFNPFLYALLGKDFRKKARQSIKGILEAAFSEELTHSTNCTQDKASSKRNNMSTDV

The target in experiment [2] is T2, Human complement C3a receptor, endogenous on human monocyte-derived macrophages (human (endogenous in HMDMs)) (UniProt Q16581).
T2 sequence: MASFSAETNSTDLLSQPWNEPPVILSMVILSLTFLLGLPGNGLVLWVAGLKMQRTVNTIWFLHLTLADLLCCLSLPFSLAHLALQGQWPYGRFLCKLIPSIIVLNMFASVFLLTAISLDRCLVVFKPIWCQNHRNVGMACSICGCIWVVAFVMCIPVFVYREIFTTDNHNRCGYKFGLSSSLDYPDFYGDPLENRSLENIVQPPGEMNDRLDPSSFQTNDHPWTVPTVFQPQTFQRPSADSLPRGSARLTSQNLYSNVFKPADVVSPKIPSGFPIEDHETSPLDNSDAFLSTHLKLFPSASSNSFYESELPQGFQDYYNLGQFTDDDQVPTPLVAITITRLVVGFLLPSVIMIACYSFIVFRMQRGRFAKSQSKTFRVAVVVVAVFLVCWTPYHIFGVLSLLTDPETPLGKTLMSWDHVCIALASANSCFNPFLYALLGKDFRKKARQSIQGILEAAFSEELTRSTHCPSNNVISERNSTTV

Experiment [3] has as its target T3, Human complement C3a receptor, stably expressed on CHO cells (human) (UniProt Q16581).
T3 sequence: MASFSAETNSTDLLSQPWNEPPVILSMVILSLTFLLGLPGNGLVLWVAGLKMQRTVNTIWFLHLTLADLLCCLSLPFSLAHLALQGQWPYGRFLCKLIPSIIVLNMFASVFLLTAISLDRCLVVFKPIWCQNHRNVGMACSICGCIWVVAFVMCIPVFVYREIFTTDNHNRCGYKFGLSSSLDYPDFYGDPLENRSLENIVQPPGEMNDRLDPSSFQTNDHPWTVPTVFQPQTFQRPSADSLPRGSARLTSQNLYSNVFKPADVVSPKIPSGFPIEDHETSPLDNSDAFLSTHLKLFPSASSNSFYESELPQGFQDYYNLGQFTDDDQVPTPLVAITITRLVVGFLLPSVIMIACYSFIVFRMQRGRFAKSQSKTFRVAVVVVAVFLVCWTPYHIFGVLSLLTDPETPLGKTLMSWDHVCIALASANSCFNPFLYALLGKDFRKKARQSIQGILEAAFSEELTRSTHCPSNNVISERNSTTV

For experiment [4], the target named is T2, Human complement C3a receptor, endogenous on human monocyte-derived macrophages (human (endogenous in HMDMs)). This is another data set of the same source.

“Recombinant mouse C3a (from UniProt P01027 671-748) (ligand)” displayed an EC50 (nM) of ERK1/2 phosphorylation in BMDMs in experiment [1] of 8.4 nM.

TLQPPSALRRRHYHHALPPSR [Human TLQP-21] displayed an EC50 (nM) of ERK1/2 phosphorylation in HMDMs in experiment [2] of 14800 nM. Further, the EC50 (nM) of ERK1/2 phosphorylation in CHO-C3aR cells in experiment [3] was determined as 587 nM. In experiment [1], this molecule registered an EC50 (nM) of ERK1/2 phosphorylation in BMDMs of 401 nM. The hTLQP-21 induced ERK activation in HMDMs pre-treated with the C3aR antagonist SB290157 (5 μM, 30 min), % of the control level (% of the control level) in experiment [4] amounted to 29.

The molecule TLQPPASSRRRHFHHALPPAR [Mouse TLQP-21] showed an EC50 (nM) of ERK1/2 phosphorylation in HMDMs in experiment [2] of 2850 nM. The molecule also registered an EC50 (nM) of ERK1/2 phosphorylation in CHO-C3aR cells in experiment [3] of 83.6 nM. Moreover, the EC50 (nM) of ERK1/2 phosphorylation in BMDMs in experiment [1] worked out at 96.5 nM. In experiment [4], the ERK signalling in HMDMs by 10 μM mTLQP-21 under the control conditions of Figure 3B, % of the C3a induced activity (% of the C3a induced activity) came out at 40 and the mTLQP-21 induced ERK activation in HMDMs pre-treated with the C3aR antagonist SB290157 (5 μM, 30 min), % of the control level (% of the control level) came to 16.
